According to patent US20070136826A1 (Biogen, published 2007):

Columns and labels:
[1] = target: Mouse CD20 (endogenous, on mouse B cell lines and splenic B cells) (mouse) (UniProt P19437); test: flow cytometry on NS-1 cells; isotype control, PE-anti-mouse IgG2b
[2] = target: Mouse CD20 (endogenous, on mouse B cell lines and splenic B cells) (mouse) (UniProt P19437); test: flow cytometry on BCL 1/3B3 cells; isotype control, PE-anti-mouse IgG2b
[3] = target: Mouse CD20 (endogenous, on mouse B cell lines and splenic B cells) (mouse) (UniProt P19437); test: flow cytometry on A20 cells; isotype control, PE-anti-mouse IgG2b
[4] = target: Mouse CD20 (endogenous, on mouse B cell lines and splenic B cells) (mouse) (UniProt P19437); test: flow cytometry on WEHI 279 cells; isotype control, PE-anti-mouse IgG2b
[5] = target: Mouse CD20 (endogenous, on mouse B cell lines and splenic B cells) (mouse) (UniProt P19437); test: flow cytometry on wild type C57Bl/6 splenocytes; isotype control, PE-anti-mouse IgG2b
[6] = target: Mouse CD20 with C-terminal V5 peptide tag, on transfected 300.18 cells (mouse) (UniProt P19437); test: flow cytometry on 300.18-CD20 cells; isotype control, PE-anti-mouse IgG2b
[7] = target: Mouse CD20 with C-terminal Idectin peptide tag, on transfected CHO cells (mouse) (UniProt P19437); test: flow cytometry on CHO-CD20 cells; isotype control, PE-anti-mouse IgG2b
Rat CD20 = target: T1, Rat CD20 (rat, UniProt D4A4Y3 1-287); test: flow cytometry staining of rat splenic B cells and two rat B cell lines
T1 construct: whole, on cells; also called CD20 on rat splenic B cells and rat B cell lines
T1 sequence: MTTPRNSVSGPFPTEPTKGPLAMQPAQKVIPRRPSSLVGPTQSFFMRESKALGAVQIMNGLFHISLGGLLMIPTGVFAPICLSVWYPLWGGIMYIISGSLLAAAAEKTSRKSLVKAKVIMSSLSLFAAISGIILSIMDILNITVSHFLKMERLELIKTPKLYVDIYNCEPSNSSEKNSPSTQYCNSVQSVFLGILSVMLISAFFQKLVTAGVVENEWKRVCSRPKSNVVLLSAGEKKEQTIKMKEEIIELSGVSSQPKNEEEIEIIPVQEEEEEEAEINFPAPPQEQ

[8] = target: T2, Mouse CD20 (endogenous, on mouse B cell lines and splenic B cells) (mouse, UniProt P19437 1-291); test: summary of Example 1; flow cytometry on cells
T2 construct: also called mCD20
T2 sequence: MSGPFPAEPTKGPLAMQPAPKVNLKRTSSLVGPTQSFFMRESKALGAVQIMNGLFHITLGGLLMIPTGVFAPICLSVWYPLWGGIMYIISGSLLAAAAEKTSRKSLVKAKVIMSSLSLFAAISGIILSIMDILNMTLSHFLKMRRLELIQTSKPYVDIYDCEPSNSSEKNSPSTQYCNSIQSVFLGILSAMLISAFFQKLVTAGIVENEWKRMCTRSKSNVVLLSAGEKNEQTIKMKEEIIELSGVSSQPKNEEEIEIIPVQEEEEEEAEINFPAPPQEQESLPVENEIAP
Method: (§1) Cell Staining and Flow Cytometry Analyses. All staining procedures were done in round bottom 96-well plates (Corning 3799) in FACS buffer (Dulbecco's PBS supplemented with 2% FBS, 0.05% sodium azide, 10% normal goat serum (heat inactivated), and 2.4G2 (1 ug/ml). None of the monoclonal secondary antibodies used recognized rat IgG2b (the 2.4G2 antibody). Cells (1×10⁵ to 1×10⁶) were incubated with primary or secondary antibodies for 45 minutes each on ice, washed between incubations, and resuspended at 1×10⁶ cells/ml in FACS buffer for analyses. Fluorescence was measured on a FACSArray or FACSCalibur and analyzed with BD FACSArray System Software or Cell Quest Pro software.

[9] = target: T3, Mouse CD20 with C-terminal V5 peptide tag, on transfected 300.18 cells (mouse, UniProt P19437 1-291); test: flow cytometry on transfected 300.18 cells
T3 sequence: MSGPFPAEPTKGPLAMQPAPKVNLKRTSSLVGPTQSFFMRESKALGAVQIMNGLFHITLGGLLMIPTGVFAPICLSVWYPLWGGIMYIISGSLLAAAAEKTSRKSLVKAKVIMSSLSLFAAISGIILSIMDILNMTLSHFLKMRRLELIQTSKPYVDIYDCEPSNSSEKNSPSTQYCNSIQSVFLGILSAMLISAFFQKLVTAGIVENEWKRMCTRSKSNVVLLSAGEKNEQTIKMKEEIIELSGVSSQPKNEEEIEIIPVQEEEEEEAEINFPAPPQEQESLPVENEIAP
Method: as §1

[10] = target: T4, Mouse CD20 with C-terminal Idectin peptide tag, on transfected CHO cells (mouse, UniProt P19437 1-291); test: flow cytometry on transfected CHO cells
T4 construct: also called CHO-CD20; CHO cells transfected with mouse CD20; not shown: Idectin peptide tag at the 3' end of the gene (N5K-CtIdectin-B7.1-Ig vector)
T4 sequence: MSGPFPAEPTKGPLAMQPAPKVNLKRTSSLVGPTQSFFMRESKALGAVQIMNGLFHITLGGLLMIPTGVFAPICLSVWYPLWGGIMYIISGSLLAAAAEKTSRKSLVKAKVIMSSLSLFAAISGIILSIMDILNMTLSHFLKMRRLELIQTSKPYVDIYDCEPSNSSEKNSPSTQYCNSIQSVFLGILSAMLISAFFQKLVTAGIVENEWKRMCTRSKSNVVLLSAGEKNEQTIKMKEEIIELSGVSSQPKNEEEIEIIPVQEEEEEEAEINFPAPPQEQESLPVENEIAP
Method: as §1

Molecule | geometric mean of fluorescence intensity [1] | geometric mean of fluorescence intensity [2] | geometric mean of fluorescence intensity [3] | geometric mean of fluorescence intensity [4] | geometric mean of fluorescence intensity [5] | geometric mean of fluorescence intensity [6] | geometric mean of fluorescence intensity [7] | binding result (Rat CD20) | binding result [8] | binding result [9] | binding result [10]
IgG2b isotype control antibody | 3.8 | 4.2 | 3.4 | 5.9 | 3.8 | 4.1 | 3.6 |  |  |  | 
18B12 IgG1 mouse anti-mouse CD20 monoclonal antibody (antibody, V domains shown, N-terminal pyroglutamic acid (N-terminal glutamine blocked), also called 18B12 antibody; 18B12-A1C3-H3) VH: QVQLQQPGAELVRPGTSVKLSCKASGYTFTSYWMHWIKQRPGQGLEWIGVIDPSDNYTKYNQKFKGKATLTVDTSSSTAYMQLSSLTSEDSAVYFCAREGYYGSSPWFAYWGQGTLVTVSS VL: QIVMSQSPAILSASPGEKVTMTCRARSSVSYIHWYQQKPGSSPKPWIYATSNLASGVPGRFSGSGSGTSYSLTITRVEAEDAATYYCQQWSSKPPTFGGGTKLEIKR |  |  |  |  |  |  |  | no binding | binds | binds | binds
